The text below walks through data of patent publication US20240025997A1 (NGM BIOPHARMACEUTICALS, published 2024).

One experiment has as its target human ILT2 on cells (human, UniProt Q8NHL6 24-650). Description: cell-based or functional assay.
Another experiment addresses Human ILT2-Fc (human, UniProt Q8NHL6 24-461, limits assumed). Description: SPR (Biacore) competition: blocking of human ILT2-Fc binding to HLA-A, 25 C. As to the method: In addition to the reporter cell system, the inhibitory activity of anti-ILT2/ILT4 antibodies towards the interaction between ILT2 and MHC I molecules, and the interaction between ILT4 and MHC I molecules was evaluated using the Biacore system. Human ILT2-Fc and ILT4-Fc were used as target receptors and their interaction with an exemplary MHC-I molecule (HLA-A) was assayed in the presence or absence of an exemplary anti-ILT2/ILT4 antibody Hz73D1.v1 at 25° C. Anti-human ILT2 (clone 27F9) or ILT4 (clone 48A5) antibodies were used as tool reagents to dissect ILT2- and ILT4-specific blocking activities. Anti-IL2/ILT4 antibodies produced a dose-dependent reduction in the interaction between ILT2 and HLA-A, as well as between ILT4 and HLA-A. IC50s of the antibodies tested are shown in Table 16.
For orientation: In SPR one partner is held on a chip, and binding of the other changes the refractive index at the surface.

In experiment [1] the target is T1, soluble human ILT2-ECD (human, UniProt Q8NHL6 24-461).
T1 construct: also called LILRB1 extracellular domain
Put plainly: SPR (Biacore), antibody captured on Protein A chip, soluble ILT-ECD injected (1.6-200 nM), 25 C. As to the method:
(§1) The binding affinities of anti-ILT2 and anti-ILT4 antibodies were measured using a Biacore system (GE Healthcare LifeSciences). Equilibrium dissociation constant (KD) measurements were carried out with purified antibodies to evaluate their binding to human ILT2, human ILT4, and rhesus ILT2. Briefly, purified anti-ILT2 antibody 27F9, anti-ILT4 antibodies 47C8 and 48A5, and anti-ILT2/ILT4 antibodies 47H6, 51A1, 64A12, 73C4, and 73D1 were captured on a Sensor Chip Protein A (GE HealthCare). The surface of the Biacore Sensor Chip Protein A consists of a carboxymethylated dextran matrix with a recombinant Protein A variant covalently attached. Soluble human ILT2-ECD, human ILT4-ECD, or rhesus ILT2-ECD were injected at a flow rate of 30 μL/min at 25° C. The ILT2 or ILT4 proteins were used at concentrations ranging from 1.6-200 nM in PBS-P buffer with 2 fold dilutions. Kinetic data were collected over time and fit using the simultaneous global fit equation to yield affinity constants (KD values) for each antibody.

A further experiment concerns the target T2, human ILT4 on cells (human, UniProt Q8N423 22-597).
T2 construct: also called LILRB2; human ILT4 expressed on 293T cells
Put plainly: flow cytometry, fluorescently labelled antibody on immune cell subsets of PBMC / red-cell-depleted whole blood. As for the experimental part:
Flow cytometry analysis of blood immune cells was performed on human and cyno PBMC and whole blood. PBMC were prepared from a leukopak (Allcells Inc.) by centrifugation through ficoll, washing with PBS and freezing in cryopreservation buffer in liquid nitrogen until use. Whole blood (Allcells Inc.) was obtained fresh and red blood cells (RBC) depleted using ammonium chloride RBC lysing solution (Biolegend). PBMC or whole blood samples were stained with a fluorescently labeled antibody panel to distinguish various immune subsets (monocytes, B cells, NK cells, CD4+ and CD8+ T cells, neutrophils and eosinophils). Samples were further stained with fluorescently labeled isotype, 27F9 (ILT2 specific), 48A5 (ILT4 specific), 73D1, and Hz73D1.v1. The number of ILT2 and ILT4 molecules per cell of each immune subset was estimated by incubation with Quantum Simply Cellular microspheres followed by flow cytometry analysis.
A general note: A flow cytometer gives signals particle by particle.

Experiment [2] addresses T3, human ILT4 chimeric reporter receptor (ILT4 extracellular domain fused to PILRbeta … (human, UniProt Q8N423 22-460)).
T3 construct: On the surface of NFAT-GFP reporter cells; associates with DAP12; also called ILT4 reporter cells; Human ILT4 reporter construct; not shown: The PILRbeta transmembrane/intracellular domain
Put plainly: reporter cell assay (not a direct binding assay): human ILT4 reporter cells co-cultured with Raji cells, %GFP+ by FACS. As for the experimental part: The ability of anti-ILT2/ILT4 antibodies to inhibit the interaction between ILT2 and/or ILT4 and MHC I molecules was evaluated using a reporter cell system. […] In this chimeric receptor system, the extracellular domain of the receptor of interest (e.g., ILT2 or ILT4) is fused with the transmembrane/intracellular domain of PILRβ that associates with the adaptor protein DAP12. When the chimeric receptor (e.g., ILT2 or ILT-4) is activated by binding to a ligand (e.g., MHC I molecule), DAP12 becomes phosphorylated and activates an NFAT-responsive promoter which drives GFP expression (see, e.g., Deng et al., 2014, Blood, 124:924-935).
Reporter cells were washed after staining and resuspended at 1×10⁶ cells/ml in X-VIVO™ 15 media (Lonza). […] For assays with Raji cells: anti-ILT2 antibody 27F9, anti-ILT4 antibody 48A5, anti-ILT2/ILT4 antibody 73D1 and Hz73D1.v1, and a control antibody were serially diluted and 50 μl was added to each well of a 96-well flat-bottom cell culture plate. […] The plates were incubated overnight at 37° C. The next day, reporter cells were assayed for GFP expression by FACS.

Experiment [3] concerns the target T4, soluble human ILT4-ECD (human, UniProt Q8N423 22-460).
T4 construct: also called LILRB2 extracellular domain
Description: Biacore competition: antibody titrated against 20 nM ILT4-ECD, mixture injected over biotinylated HLA-A*1101 on a NeutrAvidin chip. As to the method: (§2) As part of the characterization process, the ability of exemplary antibodies to inhibit or block the interaction of ILT2 or ILT4 with their natural ligands was evaluated in competition experiments using a Biacore system. As described herein, the natural ligands of ILT2 and ILT4 include, but are not limited to, HLA class I molecules, including HLA-A, HLA-B, HLA-C, HLA-E, and HLA-G. Biotinylated HLA-A*1101 was captured in high amounts on a NeutrAvidin chip surface. Antigen-antibody complexes were prepared with (i) ILT2-ECD and anti-ILT2 antibody 27F9, anti-ILT4 antibody 48A5, or anti-ILT2/ILT4 antibody Hz73D1.v1 and (ii) ILT4-ECD and anti-ILT2 antibody 27F9, anti-ILT4 antibody 48A5, or anti-ILT2/ILT4 antibody Hz73D1.v1. The antibody concentration of each antibody was titrated from 0.09-100 nM and the concentration of human ILT2-ECD or ILT4-ECD was kept constant at 20 nM. The complexes were mixed in a 96-well microplate and each was injected onto the HLA-A-coated chip surface. The measured signal (response unit, RU) was plotted against the antibody concentration.

The target in experiment [4] is T1, soluble human ILT2-ECD. Put plainly: Biacore competition: antibody titrated against 20 nM ILT2-ECD, mixture injected over biotinylated HLA-A*1101 on a NeutrAvidin chip; blocked ligand HLA-A*1101. As to the method:
as §2

For experiment [5], the target named is T1, soluble human ILT2-ECD. Description: SPR (Biacore), antibody captured on Protein A chip, soluble human ILT2-ECD injected, 25 C. As for the experimental part:
as §1

Experiment [6] concerns the target T4, soluble human ILT4-ECD. Put plainly: SPR (Biacore), antibody captured on Protein A chip, soluble ILT-ECD injected (1.6-200 nM), 25 C. As for the experimental part: as §1

As a reminder, the IC50 is the concentration that gives 50% inhibition. A higher IC50 goes with weaker potency in that assay. By Kd is commonly meant the free concentration of one partner at which half of the binding sites on the other are occupied at equilibrium, for simple one-to-one binding. The koff is the first-order rate constant of dissociation. A higher koff goes with fast dissociation. A word on the kon: it is a measure of how fast the partners come together.

T4 sequence (Q8N423 other isoform, or with tags, fused parts or gaps): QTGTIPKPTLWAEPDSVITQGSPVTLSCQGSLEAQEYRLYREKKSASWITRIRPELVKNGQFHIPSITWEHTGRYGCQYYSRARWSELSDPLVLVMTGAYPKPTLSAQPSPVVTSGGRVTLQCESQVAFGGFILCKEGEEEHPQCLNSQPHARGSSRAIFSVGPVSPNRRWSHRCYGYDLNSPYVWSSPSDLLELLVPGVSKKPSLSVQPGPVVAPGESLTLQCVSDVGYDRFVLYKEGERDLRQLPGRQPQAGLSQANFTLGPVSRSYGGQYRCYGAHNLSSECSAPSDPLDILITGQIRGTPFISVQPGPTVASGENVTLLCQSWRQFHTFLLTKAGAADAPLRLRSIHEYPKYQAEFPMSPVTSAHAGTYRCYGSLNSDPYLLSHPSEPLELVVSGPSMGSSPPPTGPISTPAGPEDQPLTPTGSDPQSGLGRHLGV
T1 sequence (Q8NHL6 24-461): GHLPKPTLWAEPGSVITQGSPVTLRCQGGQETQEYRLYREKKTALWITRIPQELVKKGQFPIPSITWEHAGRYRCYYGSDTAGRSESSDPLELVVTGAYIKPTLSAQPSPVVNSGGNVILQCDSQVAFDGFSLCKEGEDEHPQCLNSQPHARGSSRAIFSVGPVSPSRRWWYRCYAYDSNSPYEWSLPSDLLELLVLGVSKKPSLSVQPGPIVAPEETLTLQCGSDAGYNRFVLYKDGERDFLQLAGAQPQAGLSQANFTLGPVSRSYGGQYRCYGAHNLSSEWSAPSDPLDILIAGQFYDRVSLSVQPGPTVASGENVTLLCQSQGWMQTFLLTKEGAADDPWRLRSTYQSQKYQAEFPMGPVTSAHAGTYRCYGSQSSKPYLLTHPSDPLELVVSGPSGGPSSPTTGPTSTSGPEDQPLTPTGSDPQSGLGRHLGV
Chain of human ILT2 on cells (Q8NHL6 24-650): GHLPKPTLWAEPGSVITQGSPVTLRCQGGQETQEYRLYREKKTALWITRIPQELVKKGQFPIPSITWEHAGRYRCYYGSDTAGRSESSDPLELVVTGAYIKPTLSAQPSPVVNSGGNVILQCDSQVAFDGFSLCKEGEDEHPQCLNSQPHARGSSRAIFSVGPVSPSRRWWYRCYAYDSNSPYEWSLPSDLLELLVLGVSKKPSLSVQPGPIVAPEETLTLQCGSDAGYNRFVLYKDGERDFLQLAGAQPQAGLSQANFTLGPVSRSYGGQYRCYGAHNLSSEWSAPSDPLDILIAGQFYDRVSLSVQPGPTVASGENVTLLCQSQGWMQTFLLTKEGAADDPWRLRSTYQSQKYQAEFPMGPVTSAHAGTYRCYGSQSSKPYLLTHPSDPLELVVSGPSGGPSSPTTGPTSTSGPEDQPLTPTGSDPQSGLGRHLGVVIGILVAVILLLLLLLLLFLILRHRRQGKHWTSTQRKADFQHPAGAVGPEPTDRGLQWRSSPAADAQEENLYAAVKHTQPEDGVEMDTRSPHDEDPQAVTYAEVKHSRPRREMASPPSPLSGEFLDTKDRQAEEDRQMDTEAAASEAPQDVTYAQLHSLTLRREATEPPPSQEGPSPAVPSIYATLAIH
T2 sequence (Q8N423 other isoform, or with tags, fused parts or gaps): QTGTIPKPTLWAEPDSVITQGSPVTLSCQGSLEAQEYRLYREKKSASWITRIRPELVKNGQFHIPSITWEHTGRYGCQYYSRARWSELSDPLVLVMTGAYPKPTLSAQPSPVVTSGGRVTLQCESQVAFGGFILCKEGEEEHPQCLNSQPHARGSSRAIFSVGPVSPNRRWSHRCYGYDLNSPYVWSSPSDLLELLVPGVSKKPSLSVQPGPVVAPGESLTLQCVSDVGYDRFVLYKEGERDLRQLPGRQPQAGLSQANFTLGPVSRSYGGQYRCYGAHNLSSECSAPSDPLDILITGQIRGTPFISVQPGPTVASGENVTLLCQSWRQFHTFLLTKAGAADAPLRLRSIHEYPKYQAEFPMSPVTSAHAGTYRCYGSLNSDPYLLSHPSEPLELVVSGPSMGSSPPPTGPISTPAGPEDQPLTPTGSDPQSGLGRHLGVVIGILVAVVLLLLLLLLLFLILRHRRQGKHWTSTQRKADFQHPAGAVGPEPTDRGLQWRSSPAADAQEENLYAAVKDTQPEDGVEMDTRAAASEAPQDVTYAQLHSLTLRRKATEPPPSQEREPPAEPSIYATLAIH
Chain of Human ILT2-Fc (Q8NHL6 24-461 limits assumed): as the sequence (Q8NHL6 24-461) above

B1: anti-ILT2 antibody 27F9 (antibody, V domains shown)
VH: QVQLKESGPGLVAPSQSLSITCTVSGFSLTNYGVSWVRQPPGKGLEWLGIIWGDGSTNYHSALISRLSISKDNSKSQVFLKLNSLQADDTATYYCAKPNWDTYAMDFWGQGTSVTVSS
VL: DIQMTQTTSSLSASLGDRVTISCRASQDISNFLNWYQQKPDGTVKLLIYCTSKLHSGVPSRFSGSGSETDYSLTISNLEQEDIATYFCQQGNTLPPTFGGGTKLEII
notes: Mouse hybridoma antibody; also called clone 27F9; anti-ILT2 (27F9)
Take B1: the “EC50, NKL cytolytic activity against 721.221-HLA-G target cells” value with human ILT2 on cells is 0.064 nM. The molecule also displayed an IC50 in the experiment with Human ILT2-Fc of 8.9 nM. The same molecule yielded a Kd with soluble human ILT2-ECD [1] of 0.26 nM. Also, the koff in the experiment with soluble human ILT2-ECD [1] came out at 5.4e-05 s⁻¹. The association rate constant (kon) with soluble human ILT2-ECD [1] was found to be 210000 M⁻¹ s⁻¹. Moreover, the binding result in the experiment with human ILT4 on cells is listed as “no binding (tested: not given)”; in experiment [2] it was “no binding (tested: Log nM about 1.5 (about 30 nM))”; with soluble human ILT4-ECD [3], “no binding (tested: about 200 nM)”. In the experiment with soluble human ILT2-ECD [4], the “IC50 (read off the curve)” value was approximately 9 nM.

B2: anti-ILT4 antibody 47C8 (antibody, V domains shown)
VH: EVQLQQSGPDLVKPGASVKISCKASGYSFTGYYMHWVKQSHGKSLEWIGRVYPNNGDTSYNQKFKVKAILTVDKSSSTAYMELRSLTSEDSAVYYCARGATVVESLFAYWGQGTLVTVSA
VL: DIVLTQSPASLAVSLGQRATISCRASESVDNYGNNFLHWYQQKPGQPPKLLIYRTSNLESGIPARFSGSGSRTDFTLTINPVEADDVATYYCQQSNEDPYTFGGGTKLEIK
notes: Mouse hybridoma antibody
Take B2: the binding result with soluble human ILT2-ECD [5] was “no binding (tested: 1.6-200 nM)”. In the experiment with soluble human ILT4-ECD [6], the affinity, expressed as Kd, was 0.074 nM; the koff came out at 2.5e-05 s⁻¹; the kon was 340000 M⁻¹ s⁻¹.
